In patent publication US20240262906A1 (WELLMARKER BIO, published 2024):

Molecular target: T1, IGSF1 overexpressed on cells (NCI-H292 IGSF1 O/E; HEK293E IGSF1 O/E) (human, UniProt Q8N6C5 581-1336)
T1 construct: Membrane protein expressed from a commercial vector (OriGene RC209621); also called IGSF1 antigen in cells
T1 sequence: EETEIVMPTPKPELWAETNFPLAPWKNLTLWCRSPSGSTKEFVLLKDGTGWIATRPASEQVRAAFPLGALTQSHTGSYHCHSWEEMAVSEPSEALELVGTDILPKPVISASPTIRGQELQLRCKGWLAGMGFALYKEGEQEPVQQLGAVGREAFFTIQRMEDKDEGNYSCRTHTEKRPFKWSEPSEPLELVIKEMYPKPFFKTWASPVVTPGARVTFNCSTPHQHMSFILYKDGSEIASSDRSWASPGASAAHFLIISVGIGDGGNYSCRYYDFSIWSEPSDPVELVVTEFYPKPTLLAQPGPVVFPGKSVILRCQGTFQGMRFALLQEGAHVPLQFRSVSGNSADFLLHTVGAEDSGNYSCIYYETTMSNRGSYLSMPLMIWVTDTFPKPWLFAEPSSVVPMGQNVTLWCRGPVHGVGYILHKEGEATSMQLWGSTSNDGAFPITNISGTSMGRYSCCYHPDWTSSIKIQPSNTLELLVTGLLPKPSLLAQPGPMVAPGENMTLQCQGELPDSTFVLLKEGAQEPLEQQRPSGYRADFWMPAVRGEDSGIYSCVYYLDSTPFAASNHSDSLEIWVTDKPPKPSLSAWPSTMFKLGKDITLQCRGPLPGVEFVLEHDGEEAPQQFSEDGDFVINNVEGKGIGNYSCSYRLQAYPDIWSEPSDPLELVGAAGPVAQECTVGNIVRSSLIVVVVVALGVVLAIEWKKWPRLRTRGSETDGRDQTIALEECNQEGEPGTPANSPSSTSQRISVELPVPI
Assay: flow cytometry on NCI-H292 IGSF1 O/E cells, FITC anti-human IgG detection
Protocol: Specifically, the medium of NCI-H292 IGSF1 O/E cells and NCI-H292 MOCK cells was removed, washed once with PBS, and then treated with 2 ml of 0.25% trypsin-EDTA, and the cells were isolated. The isolated cells were diluted with 8 ml of PBS (hereinafter referred to as FACS buffer) containing 2% FBS and 0.05% sodium azide, and then the supernatant was removed by centrifugation at 1,200 rpm for 1 minute. Then, the cells were resuspended in FACS buffer to 1×10⁵ cells/ml. Thereafter, 1 ml of each was dispensed in a FACS tube, and the supernatant was removed by centrifugation at 1,200 rpm for 1 minute.
After the reaction was completed, 1 ml of FACS buffer was added to each tube, and the supernatant was removed by centrifugation at 1,200 rpm for 1 minute. This process was performed a total of two times. […]
Finally, after removal of the supernatant, the remaining pellet was resuspended in 200 μl of FACS buffer and analyzed by FACS. For FACS analysis, FITC fluorescence value labeled in each cell was measured using a BD LSRFortessa™ flow cytometer, and then the results were analyzed using a FlowJo software, and EC50 value was calculated using a sigma plot program. […]

B1: WM-A1-3389 antibody (antibody, human IgG1, kappa, V domains shown)
VH: QVQLVQSGAEVKRPGSSVKVSCKASGGTFSTYAISWVRQAPGQGLEWMGRIIPFVGTVDYAQKFQDRVTITADKSTNTAYMELSSLRSEDTAVYYCVRDGGRSYFDSWGPGILVTVSS
VL: QFVLTQPPSVSAAPGQDVIISCSGNTSNIGSNLVSWFQQFPETAPKLLIYDNHKRPSGISDRFSGTKSGTSASLAISGLQSEDEADYYCVAWDDSLNGYVFGTGTKVTVLR
notes: Human antibody from a phage library, converted to whole IgG; also called anti-IGSF1 antibody
EC50: ~69 nM
